The DeepSol protein solubility set

assay: soluble on expression in E. coli; label from the status in PepcDB or PDB records

Sequence	soluble on expression in E. coli
MSTHFDVIVVGAGSMGMAAGYQLAKQGVKTLLVDAFDPPHTNGSHHGDTKIIRHAYGEGREYVPLALRSQELWYELEKETHHKIFTKTGVLVFGPKGESAFVAETMEAAKEHSLTVDLLEGDEINKRWPGITVPENYNAIFEPNSGVLFSENCIRAYRELAEARGAKVLTHTRVEDFDISPDSVKIETANGSYTADKLIVSMGAWNSKLLSKLNLDIPLQPYRQVVGFFESDESKYSNDIDFPGFMVEVPNGIYYGFPSFGGCGLKLGYHTFGQKIDPDTINREFGVYPEDESNLRAFLEEYMPGANGELKRGAVCMYTKTLDEHFIIDLHPEHSNVVIAAGFSGHGFKFSSGVGEVLSQLALTGKTEHDISIFSINRPALKESLQKTTI	soluble
MGSDKIHHHHHHMAKIESNDSHLRGILKDELYYQIPIYQRPYQWTEENCEKLLDDLFFNYEDDREGDYFCGSLVLIAISKDSKATTYDVVDGQQRLSTFILLAKVLADLYNDCLDPKNLEHLQEGWKDRHTERKRLSFNTIGSNAEYDFQDALEHFNDSQASKNKNNKNNYLKNAICLKDYLMKKEIKNINDFIEWLYSNVKFITIICPNIDKALRIFNVLNARGLPLNATDIFKGELLKHAKEHEREEFVSRWNALSQKCSDNDLTMETLFSWYNLSQSGNF	not soluble
MKTHQYELIDEKVFEHEFDNGLKLFIIPKPGFQKTYVTYTTQFGSLDNHFKPIGSQQFVKVPDGVAHFLEHKLFEKEDEDLFTAFAEENAQANAFTSFDRTSYLFSATSNIESNIKRLLNMVETPYFTEETVNKEKGIIAEEIKMYQEQPGYKLMFNTLRAMYSKHPIRVDIAGSVESIYEITKDDLYLCYETFYHPSNMVLFVVGDVSPQSIIKLVEKHENQRNKTYQPRIERAQIDEPREINQRFVSEKMKLQSPRLMLGFKNEPLDESATKFVQRDLEMTFFYELVFGEETEFYQQLLNKDLIDETFGYQFVLEPSYSFSIITSATQQPDLFKQLIMDELRKYKGNLKDQEAFDLLKKQFIGEFISSLNSPEYIANQYAKLYFEGVSVFDMLDIVENITLESVNETSELFLNFDQLVDSRLEMENR	soluble
MSLTNNSETFNVLHASDFHIQLDYKLGAEGNCTLVPCGTSSSYSKDAPGKTYNFTDYYKSFNSDVSGNDISFYPDSHYDENAKFSKGDYYDFPQYFGWSFNKAPATSFGAYLSDAPYLLVNNSIVEMKKLHQEKNFESIIFTGDSFSHNGELANPDELKFSEAAIFNLINHYLNGVQVFPALGNHDTMFRYAEVAPRIYVSNASYYWNEDYVTDLWVNNGWFDKKDADAIKTHYTGYSFTTKRGLKVIGMNSNFYYGDNLWSYGETTTKPDKFGIWKFLIDELVDSESHGQRVWIMAHIPSNNYDVLPIQSHIFAAIVKRFSPYTIANLFFGHTHRTQYSVYYSTNDTSKIEDALTVSWVNPSVTPYTNFNPGFRYYEVENESFNIRNSFSYYFDLNGTEGHHHHHH	soluble
DMNYTYTSIAAIDGNIKTFVAAPRVGYRWQYDGGRELRVFVGAMYQNVQQELSGDLKSLNLPPQLLGLVENLSPDAGFNVSQSADENWNSVLGFQYAFNKDWEILMEAGFGERETLFFSLGRRF	not soluble
QAKPGGKEDSVLYQLMRARVALIYEETPGIAAKRFRAQLVENPKSEPARYGLAIAQIKGGQLNEARESLKPLLEKSPNDITYNLTQIDLDITNNRLADAQQRVDRMLTLYPTSYPLNDVRIDVLLKQNRTAEAEKSLEALLKTRPDDPDIWYVVAETRG	not soluble
GPGSMSDAFDIDEDMKMRIRVLNEIMYEDELDDGQQDVHLARGDIIDGTSDSDRDDNGGGGQRRRERRRGGGGADVCAPGPPRAETWAAVEGPEAAAASAASSLQQRAPRDEYHDKRYHEKRSKDRLARTKQIQSARNERVPAYANKKKTSKAKAGGSKGSLQRAVKRGKFTADA	soluble
MNIHKALCLSAGVSVALISLAAQAAETVTIATVNNGDMIRMQRLSKIFEQQHPDIKLNWVVLEENVLRQRLTTDIATQGGQFDVLTIGTYETPLWGAKQWLEPITDLAPEYDLEDIFPSVRQGLSVKNTLYALPFYGESTITYYRTDLFKQAGLSMPERPTWTQLGEFAAKLHQPDKGVYGMCLRGKAGWGENIALLSTMANAFGARWFDEHWKPELNSPEWANAANFYVNTLKNYGPPGVSSNGFNETLALFNSGKCALWVDASVAGSFTTDKEQSKVVDSVGFAPAPVEVTDKGSSWLYAWSLAIPATSRHKDAAKAFITWATSKAYIQLVAEKDGITNVPPGTRTSTYSEAYLKAAPFAKVTLQMMQHADPAQPSAKPVPYVGIQYVTIPEFQAIGTSVGKLFSAAVTGQTTTEQALTAAQAVTEREMKRAGYPK	not soluble
MAHHHHHHMRDPQKNCDDVVALRETLKERAGEMAKKMKENERELFLNPMPLGISCDGLPLDTDPEFHALEVARLRERQEESCDEAKIHKLNDALNERAEDLARAKLAADRQYLNPEHLRVAVDELPLNEDRNFILKEALRQEKLQNSRESAAAIAALENELNNMAKAMAAEMLAKQRPSYLAPEHHGRRIEDLPLNDSDDFLKKERRRRDLLKQPSWDIDVVAEIDKELSEMADAMARAMNAAERPQYMKASYYDKTLSELSLDTDSIIARLEAQRARLKRNPVRNAEAIHATEAAIISRAEALAKASINVGRGGVFSASQAECRSISLTSMEANSFNLLRRRGWSS	soluble
RRVADEIVISHPELADEVDTVCNKIQAGKPMPESLRELVVRTGLEELMGLVSMLSHASRIGGSLVNSLREYTEDYRDKRQQAAEEIAAKIPVK	not soluble
KIVAVTACPTGIAHTYMAADALMKAAPKHNVQIKVETQGAMGIENQLTPHDIAQADRVLIVSDIEIEQPGRFEGTRKIQIPIEEVLLNVDKVFL	not soluble
LSNTRVQSRTAKVGYQAGVAINLKTSDYFSIRPEVLYNIMGGDTQYGDDEGNTKVLKNRYDYLSIPLNFVATFEAGPGKINVFVAPQFSLGLGGKYTSNTDSSAVGFFGVRRREDRSGTLQTSDVPDNYTGTNKYFNQINWGINYGVGYQVKGLLFTGQYHMGLSNNEPHYSNPDQEAHRGNVVTKNYGFTVGLTYFFGDTK	not soluble
MGSDKIHHHHHHMKIGDKVRFLSEVGGGIVTGFKGKDFVLVEDADGFDIPMPIRECVVIEADDYNIKRKPAATAPKQEEPAKPAKPEMPVIQRQPEVRGGDTLNVFLAYVPEDAKAMMTTPFEAYLVNDSNYYLYYTYLSAEGKAWNNRSHGLVEPNTKLLLEEFTKDVLNEMERVAVQLIAFKDGKPAAIKPAVSVELRIDTVKFYKLHTFSASDFFEEPALIYDIVKDDVPAKQVYVSAEEIQSALLQKKFVDKPKSQPIMKPNHGQSGKNGIIEVDLHIDSLLDDTHGMSNSEILNYQLDKFREVIEANKEKREQKVVFIHGKGDGVLRKAIIDELKRKHSNYRYQDASFQEYGFGATMVTIK	not soluble
MGSDKIHHHHHHMEEANFYHALKIDNDRCIGCTHCMKECPTGAIRIRDGKALIHKDWCVDCGECLKSCPTEAIYVEQDDFQRIFDYKCRVALMPTVFIGQFSKYTTEKEIISAVMELGFTHVFQVEFTADMIHKEMVRQMENAEEKPVISSFCPAIVRLIQVRFPALVDNILLVKAPVNASATYYHKILEGQGVPSEEIGIFYVTPCAAKIAALKGAEGYSSTIKGVINMDTLYNKVYHILKNRPRGYEPECELPPPLTKKEMRWSQTGGEAKHFSGRCLAIDEIHNVIDFLERMETTSEVRNVDFLELRACDRSCAGGVLAVANRFLTAERIMKRSMNRDKVPMIYAADNFEALSYLRQHITIRPVQPNPKRLYDGTIDEMLKKMEQVRKLMCYLPGIDCGACGSPNCQSLAEDIVRHEAQFSDCVFMQRNMEKHGKLDQEHAFRIVEKTWGKDRLNKDCYKKGAKYEGL	not soluble
MLLEISIYCRGGQGGVTAARILAATAMLQGYYSQSMPQFGPERRGAEVRAFLRISDERIRRKCPITYPDVVILFDLKLSFNGNPETVVVNCNGSSFTGHGNVFALDATEITRRYGLVNAGWPILGPAMAGTAAKALDLDPRCLLEAIRLELGDKADRSVKAAEEAYRVVECV	not soluble
MGSDKIHHHHHHMAKIDFRNKINWRRRFRSPPRVETERDILRIFESDRGRIVNSPAIRRLQQKTQVFPLERNAAVRTRLTHSLEVQQVGRYIAKEVLSRLKELRLLEEYGLEELTGPFESVVEMACLMHDIGNPPFGHFGEAAINDWFRQRLAPGDALGQPLTDDRCEVQALRLHDGETSLNALRRKVRQDLCSFEGNAQGIRLVHTLMRMNLTWAQVGCILKYTRPAWWSEETPASHSYLMKKPGYYLAEEEYVARLRKELDLAPYNRFPLTWIMEAADDISYCVADLEDAVEKRIFSAEQLYQHLYDAWGSHEKGSLFSQVVENAWEKSRANYLKQSAEDQFFMYLRVNTLNKLVPYAARRFIDNLPAIFTGDFNHALLEDDSDCSQLLELYKNVAMKQVFSHPDVEQLELQGYRVISGLLDIYQPLLKLSLEDFSELVAQERVRRLPIASRLYQKLSTRHRLAYVEAVNKLARTAPEFALMEYYYRCRLIQDYISGMTDLYAWDEYRRLMAVE	not soluble
MSLGDEWARIRKDGALLIGLEGTFPPYSQLAGGQLQGFEVDFGRALAAQMGVTARFQTMVWDHMLDSLAAGRLDAVINQVVATPARGKRFDFSIPYTYSGLQLVVRKPDLTRFRGARDLAGAHVGVSAGTNYEQWLRDNAPQAHIHLYQDDPTKFDGLRRGEVDAIVINRLAAFNLALKSQGELVPTGRVLAREDACVVLRKGNPRLLAEVNRAIGHLQRDGTLQALSRKWFKADIVSEGHHHHHH	soluble
MKLSQMQAGERGIILALDGLSDTVRKKLMVMGVLPNTEVVLIRRAPMGDPLQVEVRGVSIALRENIAANIDVERAQ	not soluble
MKILITGGSGLVGRQLTKSLQAQNIEVTWLSRTKGVKDGIKSFLWDYKKGYIEEEAFDGVTHIVHLAGAGVFDKRWTKSYKKEIFDSRILTTKLLVEKALKLNGLEAFISGSAIGIYGNSMNSVPLTETALYGNDYLAQVTKEWEAATVPLENSSIRLAIIRTGIVLSEHGGALPAMINPIKAYIGSPLASGEQIISWIHIDDLCRIFSKAITDDAIKGTYNGVAPEPVTNKVLTQTAAAILHKPLVMPNVPSFALNILLGKEKAASVVEGIAVSAEKISATGFTFTYPYIKKALSDLLLEHHHHHH	not soluble
MGSDKIHHHHHHMFDWNDLRFFLELQRSGRLLTAAKRLNTTHSTVARHIESIEQSLGTALFVQHAQGYELTPSGQALLKHAEAMENVALLAQEEITQAITPLGKIRLGVTEGIGIMFFTPRMNALFERYPGLEVELVAVPRFVSILNREAEISIHLERPNADLLITRKLTDYRLALYASQAYLDRAPPLRHREDLARHSWIGYVDDLLFSQELLFLNSFCRVPNVVFRSTSVIAQQAAARAGLGIAVLPNYMARHDPTLVRVLPGETIQRSYWICTRRELHKSVRLRVVWDYLLALCAAEQSELLAE	not soluble
MGSDKIHHHHHHMRNIVFTGKGGVGKTSIAASTAVRAAALGYKTLVISTDPAHSLGDSFDIELGPSPVKVAENLWGQEVSVYGDLSLNWEVVREHFAHLMEVQGIEGIYVEEMGVLPGMEELFSLSYIKRYNESSEYDLLVVDCAPTGETLRLLSIPETFGWMLKLMRNMEKYVVKPVIRPLSKRISRLHDFVPDTDVYDQVDHLFSSVEGIIELLSDNSKTTVRLVMNPEKMVVKESMRALTYLNLYNITIDQIVINRVYMDDVDGQYFKGWKEIQKKYIAEIESSFGPIPITRVPLFRTEVLGLEMLKKVGETVYGDRNPLDIFYHEEHTEIVKPGEGHYVMKLRLPFVFDNRMEANIVQVGDLLTIRIGNHQKSVVLPTFLAGMKVTHAGYEEKWLAIEFRKKETAK	not soluble
